Laboratory results published in paper doi:10.1101/2023.01.03.522599, “Crystal structure of a mammalian CMTM6 and its interaction model with PD-L1” (bioRxiv, 2023).

Target: T1, human PD-L1, BRIL fused to the C-terminus, C-terminally His-tagged (human, UniProt Q9NZQ7 19-290)
T1 construct: PD-L1, human; probably ED, TMD and CD together; also called hPD-L1; source: purified; not shown: BRIL, C-terminal, kept; His-tag, C-terminal, kept
Assay: pull-down; purified C-terminally His-tagged hPD-L1 variants (BRIL fused) used to pull down purified His-tag free bCMTM6 variants (BRIL fused); examined by SDS-PAGE
Conditions: both partners purified

T1 sequence (Q9NZQ7 19-290): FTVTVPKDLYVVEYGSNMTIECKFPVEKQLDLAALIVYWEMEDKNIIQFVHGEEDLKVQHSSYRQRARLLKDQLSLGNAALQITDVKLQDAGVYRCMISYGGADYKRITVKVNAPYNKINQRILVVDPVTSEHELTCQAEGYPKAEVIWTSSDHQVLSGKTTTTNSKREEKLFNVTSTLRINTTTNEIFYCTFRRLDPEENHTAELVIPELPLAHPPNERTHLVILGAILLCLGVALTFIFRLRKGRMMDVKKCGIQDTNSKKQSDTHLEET

binding result: binds
B1: bovine CMTM6 protein (CKLF-like MARVEL transmembrane domain-containing protein 6), BRIL fused to the C-terminus (natural protein, UniProt Q3ZBE8 1-182, looked up)
chain: MENGQVYRATTEAHPGPGIGPRSGLAAYFTLSRLTGFRRLKLLELVLSLLAFICEEVVSQCTLCGGLYFFEFVSCSAFLLSLLILVVYCTPVYDRVDPAKVKSSDFFITLGTGLVFFVASLTFTLTHDNTIAEIAAIVFGMLASLTYLAEFSFMLREKLKEPRPRKGEATMRREHLTEPLNA
notes: CMTM6, bovine; the crystal structure holds residues 33-165, and 32 amino-terminal and 17 carboxy-terminal residues were not modeled; Whether BRIL was on the crystallized sample is not clear from 'bCMTM6(-BRIL)'; also called bCMTM6; bCMTM6(-BRIL); source: purified (size-exclusion column); not shown: BRIL, C-terminal, kept
